The values below come from publication PMC8854392 (2022).

As a reminder, the Kd is the equilibrium constant for the complex coming apart. A lower Kd goes with higher affinity. What is called koff is the rate constant with which the complex falls apart. Read a high koff as fast dissociation.

In assay [1] the target is T1, Cy.002 Fab:CyRPA complex, formed beforehand and purified by SEC (Plasmodium falciparum (3D7 clone) | …, UniProt Q8IFM8 29-362). The experiment in a line: SPR; PBS+P20.
Assay [2] has as its target Cy.007 Fab:CyRPA complex, formed beforehand and purified by SEC (Plasmodium falciparum (3D7 clone) | …, UniProt Q8IFM8 29-362). Nature of the assay: SPR; PBS+P20. A general note: Surface plasmon resonance follows binding to a sensor surface in real time, without labels.
The target in assay [3] is Cy.003 Fab:CyRPA complex, formed beforehand and purified by SEC (Plasmodium falciparum (3D7 clone) | …, UniProt Q8IFM8 29-362). Nature of the assay: SPR; PBS+P20.
The target of assay [4] is T1, Cy.002 Fab:CyRPA complex, formed …. The experiment in a line: SPR; TBS+P20, 1 mM CaCl2.
In assay [5] the target is Cy.004 Fab:CyRPA complex, formed beforehand and purified by SEC (Plasmodium falciparum (3D7 clone) | …, UniProt Q8IFM8 29-362). The experiment in a line: SPR; TBS+P20, 1 mM CaCl2.
For assay [6], the target named is Cy.009 Fab:CyRPA complex, formed beforehand and purified by SEC (Plasmodium falciparum (3D7 clone) | …, UniProt Q8IFM8 29-362). The experiment in a line: SPR; TBS+P20, 1 mM CaCl2.

B1: Cy.009, chimeric anti-CyRPA monoclonal antibody (chicken variable domains, human IgG1) (antibody, V domains shown)
VH: AVTLDESGGGLQTPGGALSLVCKASGFTFSDYAMGWVRQAPGKGLEYVAGIKSDGSFTLYGSTVKGRATISRDNGQSIVRLQLNNLRAEDTGTYYCAKSDDNGGHYSDFSGEIDAWGHGTEVIVSS
VL: RCALTQPSSVSANPGETVKITCSGSSYSYGWYQQKSPGSAPVTVIYYNDKRPSDIPSRFSGSKSGSTGTLTITGVQAEDEAVYFCGNSDSRNAAFGAGTTLTVL
B1: the values for the Kd in assay [1], in assay [2] and in assay [3] were 1500 nM, 2100 nM and 260 nM, respectively. For the same molecule, the koff in assay [1] worked out at 0.17 s⁻¹.

B2: Cy.004, chimeric anti-CyRPA monoclonal antibody (chicken variable domains, human IgG1) (antibody, V domains shown)
VH: AVTLDESGGGLQTPGGALSLVCKASGFDFSSYAMGWVRQAPGKGLEYVAGIRNDGSFTLYTPAVKGRATISRDNGQSTVRLQLNNLRAEDTATYFCTKSADDGGHYSDFSGEIDAWGHGTEVIVSS
VL: RCALTQPSSVSANPGETVKITCSGSTYNYGWYQQKSPGSAPVTVIYYNDKRPSDIPSRFSGSKSGSTGTLTITGVQAEDEAVYYCGNSDSRNVAFGAGTTLTVL
As for B2, the Kd stood at 1800 nM in assay [1], 390 nM in assay [2] and 410 nM in assay [3]. The koff in assay [1] came to 0.39 s⁻¹.

B3: Cy.007, chimeric anti-CyRPA monoclonal antibody (chicken variable domains, human IgG1) (antibody, V domains shown)
VH: AVTLDESGGGLQTPGGTLSLVCKGSGFTFSSYEMQWVRQAPGKGLEWVADICIGGSYTGYGPAVKGRATISRDDGQSTVRLQLNNLRAEDTGTYYCAKTARSDYCITGLDDIDAWGHGTEVIVSS
VL: RCALTQPSSVSANPGETVKITCSGGSSDYGWYQQKSPGSAPVTVIYENNKRPSDIPSRFSGSKFGSTHTLTITGVQADDEAVYFCGSRDTNNGAFGAGTTLTVL
Turning to B3, the Kd is 11 nM in assay [4], 1.6 nM in assay [5] and 2.6 nM in assay [6]. The koff in assay [4] worked out at 0.0024 s⁻¹.

B4: Cy.003, chimeric anti-CyRPA monoclonal antibody (chicken variable domains, human IgG1) (antibody, V domains shown)
VH: AVTLDESGGGLQTPGGALSLVCKGSGFFSFSSYTMQWVRQAPGKGLEWVASISSGGGTNYGAAVKGRATISRDNGQSTLRLQLNNLRAEDTGTYYCAKHGVNGCDWSYSVGCVDAWGHGTEVIVSS
VL: RCALTQPSSVSANPGETVKITCSGGSSSYYGWYQQKSPGSAPVTLIYNNQKRPSDIPSRFSGSKSGSTGTLTITGVQAEDEAVYFCGSRDNSGGIFGAGTTLTVL
B4: the Kd in assay [4] was 77 nM; in assay [5] it was 13 nM; in assay [6], 8.6 nM. Also, the koff in assay [4] was 0.0048 s⁻¹.
